Measurements taken from US20170081400A1 (CEPHALON, published 2017).
Substitutions are numbered along the chain they refer to.

B1: 320-198 (antibody, human IgG1, name in Kabat numbering, V domains shown)
VH: QVQLVQSGAEVKKPGASVKVSCKASGYTFTSYDINWVRQAPGQGLEWMGWLNPNSGNTGYAQKFQGRVTMTADRSTSTAYMELSSLRSEDTAVYYCAREVPETAAFEYWGQGTLVTVSS
VL: QSVLTQPPSVSGAPGQRVTISCLSSSSDIGAGLGVHWYQQLPGTAPKLLIEGYYNRPSGVPDRFSGSKSGTSASLTITGLLPEDEGDYYCQSYDGTLSALFGGGTKLTVLG
notes: human IgG1, lambda
B2: 320-202 (antibody, human IgG1, name in Kabat numbering, V domains shown)
VH: B1 VH
VL: B1 VL with L23T, S24Q
notes: human IgG1, lambda
B3: 320-207 (antibody, human IgG1, name in Kabat numbering, V domains shown)
VH: B1 VH
VL: B1 VL with L23T, S24W
notes: human IgG1, lambda
B4: 320-209 (antibody, human IgG1, name in Kabat numbering, V domains shown)
VH: B1 VH
VL: B1 VL with L23T, S25A
notes: human IgG1, lambda
B5: 320-214 (antibody, human IgG1, name in Kabat numbering, V domains shown)
VH: B1 VH
VL: B1 VL with L23T, S25L
notes: human IgG1, lambda
B6: 320-215 (antibody, human IgG1, name in Kabat numbering, V domains shown)
VH: B1 VH
VL: B1 VL with L23T, S25W
notes: human IgG1, lambda
B7: 320-216 (antibody, human IgG1, name in Kabat numbering, V domains shown)
VH: B1 VH
VL: B1 VL with L23T, S25Y
notes: human IgG1, lambda
B8: 320-217 (antibody, human IgG1, name in Kabat numbering, V domains shown)
VH: B1 VH
VL: B1 VL with L23T, S26A
notes: human IgG1, lambda
B9: 320-219 (antibody, human IgG1, name in Kabat numbering, V domains shown)
VH: B1 VH
VL: B1 VL with L23T, S26D
notes: human IgG1, lambda
B10: 320-220 (antibody, human IgG1, name in Kabat numbering, V domains shown)
VH: B1 VH
VL: B1 VL with L23T, S26H
notes: human IgG1, lambda
B11: 320-222 (antibody, human IgG1, name in Kabat numbering, V domains shown)
VH: B1 VH
VL: B1 VL with L23T, S26L
notes: human IgG1, lambda
B12: 320-223 (antibody, human IgG1, name in Kabat numbering, V domains shown)
VH: B1 VH
VL: B1 VL with L23T, S26W
notes: human IgG1, lambda
B13: 320-224 (antibody, human IgG1, name in Kabat numbering, V domains shown)
VH: B1 VH
VL: B1 VL with L23T, S26Y
notes: human IgG1, lambda
B14: 320-225 (antibody, human IgG1, name in Kabat numbering, V domains shown)
VH: B1 VH
VL: B1 VL with L23T, S27A
notes: human IgG1, lambda
B15: 320-227 (antibody, human IgG1, name in Kabat numbering, V domains shown)
VH: B1 VH
VL: B1 VL with L23T, S27D
notes: human IgG1, lambda
B16: 320-228 (antibody, human IgG1, name in Kabat numbering, V domains shown)
VH: B1 VH
VL: B1 VL with L23T, S27H
notes: human IgG1, lambda
B17: 320-230 (antibody, human IgG1, name in Kabat numbering, V domains shown)
VH: B1 VH
VL: B1 VL with L23T, S27L
notes: human IgG1, lambda
B18: 320-231 (antibody, human IgG1, name in Kabat numbering, V domains shown)
VH: B1 VH
VL: B1 VL with L23T, S27W
notes: human IgG1, lambda
B19: 320-232 (antibody, human IgG1, name in Kabat numbering, V domains shown)
VH: B1 VH
VL: B1 VL with L23T, S27Y
notes: human IgG1, lambda
B20: 320-234 (antibody, human IgG1, name in Kabat numbering, V domains shown)
VH: B1 VH
VL: B1 VL with L23T, D28S
notes: human IgG1, lambda
B21: 320-235 (antibody, human IgG1, name in Kabat numbering, V domains shown)
VH: B1 VH
VL: B1 VL with L23T, D28Q
notes: human IgG1, lambda
B22: 320-238 (antibody, human IgG1, name in Kabat numbering, V domains shown)
VH: B1 VH
VL: B1 VL with L23T, D28L
notes: human IgG1, lambda
B23: 320-239 (antibody, human IgG1, name in Kabat numbering, V domains shown)
VH: B1 VH
VL: B1 VL with L23T, D28W
notes: human IgG1, lambda
B24: 320-240 (antibody, human IgG1, name in Kabat numbering, V domains shown)
VH: B1 VH
VL: B1 VL with L23T, D28Y
notes: human IgG1, lambda
B25: 320-242 (antibody, human IgG1, name in Kabat numbering, V domains shown)
VH: B1 VH
VL: B1 VL with L23T, I29S
notes: human IgG1, lambda
B26: 320-243 (antibody, human IgG1, name in Kabat numbering, V domains shown)
VH: B1 VH
VL: B1 VL with L23T, I29Q
notes: human IgG1, lambda
B27: 320-246 (antibody, human IgG1, name in Kabat numbering, V domains shown)
VH: B1 VH
VL: B1 VL with L23T, I29K
notes: human IgG1, lambda
B28: 320-247 (antibody, human IgG1, name in Kabat numbering, V domains shown)
VH: B1 VH
VL: B1 VL with L23T, I29L
notes: human IgG1, lambda
B29: 320-248 (antibody, human IgG1, name in Kabat numbering, V domains shown)
VH: B1 VH
VL: B1 VL with L23T, I29W
notes: human IgG1, lambda
B30: 320-249 (antibody, human IgG1, name in Kabat numbering, V domains shown)
VH: B1 VH
VL: B1 VL with L23T, I29Y
notes: human IgG1, lambda
B31: 320-250 (antibody, human IgG1, name in Kabat numbering, V domains shown)
VH: B1 VH
VL: B1 VL with L23T, G30A
notes: human IgG1, lambda
B32: 320-251 (antibody, human IgG1, name in Kabat numbering, V domains shown)
VH: B1 VH
VL: B1 VL with L23T, G30S
notes: human IgG1, lambda

Experiments:
[1] = biological target: T1, human TL1A extracellular domain with N-terminal HIS and FLAG tag (human) (UniProt O95150); experiment: cell-based or functional assay
T1 sequence: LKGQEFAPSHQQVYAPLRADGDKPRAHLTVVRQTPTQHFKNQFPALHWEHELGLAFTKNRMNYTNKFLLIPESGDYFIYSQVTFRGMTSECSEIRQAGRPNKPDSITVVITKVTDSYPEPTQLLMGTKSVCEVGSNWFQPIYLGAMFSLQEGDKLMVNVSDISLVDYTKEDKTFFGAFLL

[2] = biological target: T2, human TL1A extracellular domain with N-terminal HIS and FLAG tag (human, UniProt O95150 72-251); experiment: SPR run 2; supernatant on Protein A; TL1A 10 ug/mL; timepoint 44
T2 construct: whole entry named. ~70 kDa fraction purified by gel filtration
T2 sequence: T1 sequence
Description: (§1) 1.5. Antibody expression and antigen binding as determined by SPR. Using a CM5 sensor chip (GE Healthcare) Protein A (Pierce) was coupled to the chip surface using an amine coupling kit (GE Healthcare). Protein A was coupled on flow cell 1 and 2 (or alternatively 3 and 4) using a BIACORE® T200. […] The amount of supernatant or purified protein (as well as the concentration) injected during the capture stage varied between runs and is specified in the header of the Tables 3-11. At the end of injection of the supernatant or purified antibody the change in response units was measured. This value was reported as Capture Level in Tables 3-11. […] The response units were measured prior to the end of the dissociation phase. […] The sensorgrams were double referenced (flow cell 2 is subtracted from flow cell 1 and a buffer blank). As there were a large number of antibody variants to screen, these were screened across different runs (Tables 3-11). […] A summary of the conditions used in each run is below:
(§2) 2.1. […] In some experiment the antibodies were purified using Protein A chromatography (See 1.4) and purified antibodies were used in BIACORE® (GE Healthcare) experiments.

[3] = biological target: T2, human TL1A extracellular domain with …; experiment: SPR run 2; supernatant on Protein A; TL1A 10 ug/mL; timepoint 220
Description: as §1, §2

Binder	Antibody IC50, TL1A induced caspase potency assay in TF-1 cells [1] [µg/mL]	Fold improvement over 320-179, TL1A induced caspase potency assay in TF-1 cells [1] [fold]	TL1A Binding Level (Early) [2] [RU]	TL1A Binding Level (Late) [3] [RU]
B1	0.01	1	262	241
B2	0.01	1	234	214
B3	0.007	3	268	243
B4	0.04	1	222	200
B5	–	–	221	196
B6	–	–	220	199
B7	–	–	171	147
B8	–	–	258	235
B9	0.02	2	243	220
B10	–	–	253	230
B11	–	–	156	96
B12	–	–	143	66
B13	–	–	198	153
B14	–	–	267	243
B15	–	–	242	218
B16	–	–	259	235

Binder	Antibody IC50, TL1A induced caspase potency assay in TF-1 cells [1] [µg/mL]	Fold improvement over 320-179, TL1A induced caspase potency assay in TF-1 cells [1] [fold]	TL1A Binding Level (Early) [2] [RU]	TL1A Binding Level (Late) [3] [RU]
B17	–	–	245	223
B18	–	–	271	243
B19	–	–	261	235
B20	–	–	262	239
B21	–	–	256	236
B22	–	–	221	191
B23	–	–	212	163
B24	–	–	230	196
B25	–	–	124	49
B26	–	–	71	26
B27	–	–	32	23
B28	–	–	205	162
B29	–	–	96	30
B30	–	–	77	28
B31	–	–	180	115
B32	–	–	134	50
